Results published in patent US20180149638A1.

Biological target: pBIND-ASK1N (DNA binding domain fused to ASK1 N-terminal 1-678 aa, CheckMate mammalian two-hybrid system) (Homo sapiens (Human)) (UniProt Q99683)
Assay: cell-based or functional assay

Chain of UniProt Q99683 (Q99683 other isoform, or with tags, fused parts or gaps limits assumed, form in doubt): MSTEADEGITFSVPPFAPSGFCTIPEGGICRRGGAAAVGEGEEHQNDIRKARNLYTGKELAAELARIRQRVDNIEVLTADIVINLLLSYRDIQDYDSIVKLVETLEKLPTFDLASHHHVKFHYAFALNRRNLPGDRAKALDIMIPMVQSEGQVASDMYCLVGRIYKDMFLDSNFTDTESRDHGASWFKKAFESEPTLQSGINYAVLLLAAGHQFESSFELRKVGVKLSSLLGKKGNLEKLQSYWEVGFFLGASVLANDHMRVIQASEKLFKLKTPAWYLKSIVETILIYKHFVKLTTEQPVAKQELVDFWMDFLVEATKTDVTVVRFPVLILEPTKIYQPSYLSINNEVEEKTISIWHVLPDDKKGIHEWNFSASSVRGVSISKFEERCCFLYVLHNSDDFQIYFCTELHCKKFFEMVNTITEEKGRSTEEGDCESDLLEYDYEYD

- ratio of RLU value of firefly luciferase to RLU value of Renilla luciferase, group A (no peptide): 1.9
Substance: pACT-ASK1N (transcriptional activation domain fused to ASK1 N-terminal 1-678 aa, CheckMate mammalian two-hybrid system) (from UniProt Q99683 1-678)
